Assay results as given in patent US20240239915A1 (Zymeworks, published 2024).
Numbering of substitutions follows the chain as printed. Names and notes keep the numbering of the source. Like-named read-outs stand apart in the source and are kept apart here.

Key:
[1] = biological target: T1, human FcRn (human neonatal Fc receptor large subunit p51 and beta2-microglobulin), biotinylated (human, UniProt P55899 24-297; P61769 21-119, biotinylated (site not stated)); test: BLI (Octet RED384), biotinylated FcRn on streptavidin biosensor, binding and dissociation at pH 6.0
[2] = biological target: T1, human FcRn (human neonatal Fc receptor …); test: BLI (Octet RED384), biotinylated FcRn on streptavidin biosensor, binding at pH 6.0, dissociation at pH 7.4
[3] = biological target: T2, Recombinant Cynomolgus Fc gamma RIIA/CD32a Protein (R&D Systems), His-tagged (cynomolgus); test: SPR (Biacore T200); receptor immobilized directly on CM5 chip, antibody as analyte at 4.7 µM
T2 construct: also called cynomolgus FcγRIIa; cFcγRIIa
T2 chain: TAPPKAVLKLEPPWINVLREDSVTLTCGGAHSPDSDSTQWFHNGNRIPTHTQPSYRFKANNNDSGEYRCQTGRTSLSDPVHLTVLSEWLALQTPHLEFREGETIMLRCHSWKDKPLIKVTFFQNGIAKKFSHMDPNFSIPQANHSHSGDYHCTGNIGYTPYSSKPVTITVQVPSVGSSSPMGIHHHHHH

[4] = biological target: T3, Recombinant Cynomolgus Fc gamma RIII/CD16 Protein (R&D Systems), His-tagged (cynomolgus, UniProt Q8SPW2 17-208); test: as above
T3 construct: also called cynomolgus FcγRIII; cFcγRIII
T3 chain: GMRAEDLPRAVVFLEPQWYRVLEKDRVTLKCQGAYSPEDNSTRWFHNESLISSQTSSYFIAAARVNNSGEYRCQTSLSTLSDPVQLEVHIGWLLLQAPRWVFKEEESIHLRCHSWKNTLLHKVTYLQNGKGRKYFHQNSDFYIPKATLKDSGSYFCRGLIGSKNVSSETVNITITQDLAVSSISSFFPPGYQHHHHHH

[5] = biological target: T4, Recombinant Cynomolgus Fc gamma RIIB protein (R&D Systems), His-tagged (cynomolgus); test: as above
T4 construct: also called cynomolgus FcγRIIb; cFcγRIIb
T4 chain: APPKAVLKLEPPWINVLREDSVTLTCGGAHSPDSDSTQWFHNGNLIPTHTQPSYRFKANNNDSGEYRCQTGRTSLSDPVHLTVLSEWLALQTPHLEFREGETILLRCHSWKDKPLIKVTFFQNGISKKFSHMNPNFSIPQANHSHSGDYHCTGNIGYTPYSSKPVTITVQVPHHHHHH

[6] = biological target: T5, Recombinant Human Fc gamma RIIB/C (CD32b/c) Protein (R&D Systems), His-tagged (human, UniProt P31994 46-217); test: as above
T5 construct: also called human FcγRIIb/c; hFcγRIIb/c
T5 sequence: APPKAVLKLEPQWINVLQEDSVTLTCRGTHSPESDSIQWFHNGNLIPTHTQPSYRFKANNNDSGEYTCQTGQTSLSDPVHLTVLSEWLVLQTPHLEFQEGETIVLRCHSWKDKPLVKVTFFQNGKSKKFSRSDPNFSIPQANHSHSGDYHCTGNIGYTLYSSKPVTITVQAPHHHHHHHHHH

[7] = biological target: T6, Recombinant Human Fc gamma RIIA/CD32a (H167) Protein (R&D Systems), His-tagged (human, UniProt P12318 34-218); test: as above
T6 construct: also called human FcγRIIa (H167); hFcγRIIa (H167)
T6 sequence: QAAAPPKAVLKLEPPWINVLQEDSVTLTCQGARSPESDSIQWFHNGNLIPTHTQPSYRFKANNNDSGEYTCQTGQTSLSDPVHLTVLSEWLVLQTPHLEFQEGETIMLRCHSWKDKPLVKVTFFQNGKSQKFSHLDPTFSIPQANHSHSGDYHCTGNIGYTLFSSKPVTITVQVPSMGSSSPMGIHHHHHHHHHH

[8] = biological target: T7, Recombinant Human Fc gamma RIIIA/CD16a (V176F) Protein (R&D Systems), His-tagged (human, UniProt P08637 17-208); test: as above
T7 construct: no further substitution applied; also called human FcγRIIIa (V176F); hFcγRIIIa (V176F)

[9] = biological target: T8, Recombinant Human Fc gamma RIIIA/CD16a protein (R&D Systems), His-tagged (human, UniProt P08637 17-208); test: as above
T8 construct: also called human FcγRIIIa; hFcγRIIIa

[10] = biological target: T9, Recombinant Human Fc gamma RIIIB/CD16b Protein (R&D Systems), His-tagged (human, UniProt O75015 20-208); test: as above
T9 construct: also called human FcγRIIIb; hFcγRIIIb
T9 chain: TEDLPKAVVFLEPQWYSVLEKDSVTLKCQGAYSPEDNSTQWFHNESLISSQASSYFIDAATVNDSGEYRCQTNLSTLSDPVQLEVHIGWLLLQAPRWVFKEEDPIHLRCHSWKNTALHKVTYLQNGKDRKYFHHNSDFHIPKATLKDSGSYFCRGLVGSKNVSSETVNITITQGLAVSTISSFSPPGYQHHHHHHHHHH

[11] = biological target: T10, Recombinant Cynomolgus Monkey Fc gamma RI/CD64 Protein, CF (R&D Systems), His-tagged (cynomolgus, UniProt P12314 11-288 (human entry)); test: SPR (Biacore T200); His-tagged receptor captured on anti-His antibody chip, antibody as analyte at 4.7 µM
T10 construct: also called cynomolgus FcγRI; cFcγRI
T10 chain: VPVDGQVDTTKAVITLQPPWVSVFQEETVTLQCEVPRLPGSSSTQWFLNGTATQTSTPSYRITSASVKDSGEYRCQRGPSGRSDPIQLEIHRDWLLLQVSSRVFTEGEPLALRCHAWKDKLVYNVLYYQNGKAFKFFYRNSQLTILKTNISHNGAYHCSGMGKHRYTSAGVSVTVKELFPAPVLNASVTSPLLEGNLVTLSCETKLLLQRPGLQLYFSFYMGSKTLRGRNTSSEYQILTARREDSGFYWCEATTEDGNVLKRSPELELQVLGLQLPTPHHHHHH

[12] = biological target: T2, Recombinant Cynomolgus Fc gamma …; test: SPR (Biacore T200); receptor immobilized directly on CM5 chip, antibody as analyte at 4.7 µM
[13] = biological target: T3, Recombinant Cynomolgus Fc gamma …; test: as above
[14] = biological target: T4, Recombinant Cynomolgus Fc gamma RIIB …; test: as above
[15] = biological target: T5, Recombinant Human Fc gamma RIIB/C …; test: as above; remark: listed apart in the source
[16] = biological target: T6, Recombinant Human Fc gamma RIIA/CD32a …; test: as above; remark: listed apart in the source
[17] = biological target: T7, Recombinant Human Fc gamma RIIIA/CD16a …; test: as above; remark: listed apart in the source
[18] = biological target: T8, Recombinant Human Fc gamma RIIIA/CD16a …; test: as above; remark: listed apart in the source
[19] = biological target: T9, Recombinant Human Fc gamma RIIIB/CD16b …; test: as above
[20] = biological target: T10, Recombinant Cynomolgus Monkey Fc gamma …; test: SPR (Biacore T200), RU at 4.7 µM antibody
[21] = biological target: T9, Recombinant Human Fc gamma RIIIB/CD16b …; test: SPR (Biacore T200); receptor immobilized directly on CM5 chip, antibody as analyte at 4.7 µM

T8 sequence (P08637 other isoform, or with tags, fused parts or gaps): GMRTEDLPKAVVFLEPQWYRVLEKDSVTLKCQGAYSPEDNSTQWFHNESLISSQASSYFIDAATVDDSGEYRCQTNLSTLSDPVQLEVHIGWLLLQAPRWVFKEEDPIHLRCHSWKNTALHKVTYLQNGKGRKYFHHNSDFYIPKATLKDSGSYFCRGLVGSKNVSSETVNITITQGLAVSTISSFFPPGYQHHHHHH
T7 sequence (P08637 other isoform, or with tags, fused parts or gaps V176F V176F): as the sequence (P08637 other isoform, or with tags, fused parts or gaps) above, with V160F counted along it
T1 sequence (P55899 24-297 limits assumed, chain 1 of 2): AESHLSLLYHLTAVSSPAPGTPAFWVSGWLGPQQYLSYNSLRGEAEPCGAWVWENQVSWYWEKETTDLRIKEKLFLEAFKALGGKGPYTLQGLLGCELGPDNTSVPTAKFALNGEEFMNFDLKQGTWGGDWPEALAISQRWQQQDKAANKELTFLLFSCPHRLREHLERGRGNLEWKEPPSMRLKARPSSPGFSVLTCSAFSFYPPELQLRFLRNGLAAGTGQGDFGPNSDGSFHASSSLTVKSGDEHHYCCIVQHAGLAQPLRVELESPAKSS
T1 sequence (P61769 21-119 limits assumed, chain 2 of 2): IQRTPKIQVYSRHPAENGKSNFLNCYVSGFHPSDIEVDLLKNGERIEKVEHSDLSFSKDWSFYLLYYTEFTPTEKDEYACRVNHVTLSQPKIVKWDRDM

B1: L234A/L235A/D265G/P329A (LALA-DGPA) variant of IgG1 WT of the anti-EGFR antibody panitumumab (antibody)
heavy: QVQLQESGPGLVKPSETLSLTCTVSGGSVSSGDYYWTWIRQSPGKGLEWIGHIYYSGNTNYNPSLKSRLTISIDTSKTQFSLKLSSVTAADTAIYYCVRDRVTGAFDIWGQGTMVTVSSASTKGPSVFPLAPSSKSTSGGTAALGCLVKDYFPEPVTVSWNSGALTSGVHTFPAVLQSSGLYSLSSVVTVPSSSLGTQTYICNVNHKPSNTKVDKRVEPKSCDKTHTCPPCPAPEAAGGPSVFLFPPKPKDTLMISRTPEVTCVVVGVSHEDPEVKFNWYVDGVEVHNAKTKPREEQYNSTYRVVSVLTVLHQDWLNGKEYKCKVSNKALAAPIEKTISKAKGQPREPQVYTLPPSREEMTKNQVSLTCLVKGFYPSDIAVEWESNGQPENNYKTTPPVLDSDGSFFLYSKLTVDKSRWQQGNVFSCSVMHEALHNHYTQKSLSLSPGK
light: not shown
notes: Positions are EU numbers
Kd [1]: 5 nM | koff [2]: 2.3 s⁻¹

B2: L234A/L235A/P329G (LALA-PG) variant of IgG1 WT of the anti-EGFR antibody panitumumab (antibody)
heavy: B1 heavy with G267D, A331G
light: not shown
notes: Mutations in both CH2 domains; positions are EU numbers
binding response (RU) [3]: 23 RU | binding response (RU) [4]: 10 RU | binding response (RU) [5]: 110 RU | binding response (RU) [6]: 19 RU | binding response (RU) [7]: 19 RU | binding response (RU) [8]: -0.8 RU | binding response (RU) [9]: -0.7 RU | binding response (RU) [10]: -0.4 RU | binding response (RU) [11]: 1300 RU

B3: L234A/L235A/D265N (LALA-DN) variant of IgG1 WT of the anti-EGFR antibody panitumumab (antibody)
heavy: B1 heavy with G267N, A331P
light: not shown
notes: as for B2
binding response (RU) [12]: 19 RU | binding response (RU) [13]: 3.1 RU | binding response (RU) [14]: 85 RU | binding response (RU) [15]: 14 RU | binding response (RU) [16]: 21 RU | binding response (RU) [17]: -5 RU | binding response (RU) [18]: -3.3 RU | binding response (RU) [19]: -1 RU

B4: L234A/L235A/D265Q (LALA-DQ) variant of IgG1 WT of the anti-EGFR antibody panitumumab (antibody)
heavy: B1 heavy with G267Q, A331P
light: not shown
notes: as for B2
RU value relative to the LALA-DA variant [20]: ≥ 1.4 fold | binding response (RU) [12]: 22 RU | binding response (RU) [13]: 3.5 RU | binding response (RU) [14]: 89 RU | binding response (RU) [15]: 15 RU | binding response (RU) [16]: 34 RU | binding response (RU) [17]: -3.5 RU | binding response (RU) [18]: -2.1 RU | binding response (RU) [19]: -0.6 RU

B5: L234A/L235A/D265T (LALA-DT) variant of IgG1 WT of the anti-EGFR antibody panitumumab (antibody)
heavy: B1 heavy with G267T, A331P
light: not shown
notes: as for B2
RU value relative to the LALA-DA variant [20]: ≥ 1.4 fold | binding response (RU) [12]: 24 RU | binding response (RU) [13]: 4.8 RU | binding response (RU) [14]: 93 RU | binding response (RU) [15]: 15 RU | binding response (RU) [16]: 37 RU | binding response (RU) [17]: -3.6 RU | binding response (RU) [18]: -1.4 RU | binding response (RU) [19]: -0.2 RU

B6: LALA variant of the anti-LPS antibody O11-1111 (IgG1) (antibody)
heavy: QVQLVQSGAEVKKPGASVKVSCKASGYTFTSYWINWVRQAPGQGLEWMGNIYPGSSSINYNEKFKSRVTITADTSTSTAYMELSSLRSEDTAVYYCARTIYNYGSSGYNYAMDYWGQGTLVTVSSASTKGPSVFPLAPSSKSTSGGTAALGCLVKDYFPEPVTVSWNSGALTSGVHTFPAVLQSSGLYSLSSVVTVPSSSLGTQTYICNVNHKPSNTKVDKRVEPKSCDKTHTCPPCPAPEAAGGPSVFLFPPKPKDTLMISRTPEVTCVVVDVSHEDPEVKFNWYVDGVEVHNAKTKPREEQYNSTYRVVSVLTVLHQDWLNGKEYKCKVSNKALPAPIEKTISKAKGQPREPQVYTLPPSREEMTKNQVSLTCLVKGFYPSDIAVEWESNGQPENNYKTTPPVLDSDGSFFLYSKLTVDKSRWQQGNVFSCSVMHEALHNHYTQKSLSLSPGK
light: DIVMTQSPDSLAVSLGERATINCKASENVGNSVSWYQQKPGQPPKLLIYGASNRYTGVPDRFSGSGSGTDFTLTISSLQAEDVAVYYCGQSYSYPYTFGQGTKVEIKRTVAAPSVFIFPPSDEQLKSGTASVVCLLNNFYPREAKVQWKVDNALQSGNSQESVTEQDSKDSTYSLSSTLTLSKADYEKHKVYACEVTHQGLSSPVTKSFNRGEC
notes: LALA substitutions in EU numbering; also called Anti-LPS Antibody LALA
binding response (RU) [21]: -1.4 RU
